Experiments:
[1] = target: Rabbit skeletal muscle actin filaments (rabbit) (UniProt P68135); experiment: high-speed atomic force microscopy; F-actin held on a mica-supported lipid bilayer (DPPC:DPTAP:biotin-cap-DPPE 89:10:1); actin-free XCAP1 or XCAP1-actin complex injected at 20-100 nM; 30 mM KCl, 10 mM imidazole-HCl pH 7.0, 1 mM MgCl2, 0.5 mM EGTA, 10 mM DTT, 10 % glycerol, 0.2 mM ATP; room temperature; dwell time of single particles
[2] = target: actin-free Xenopus cyclase-associated protein 1 (Xenopus laevis); experiment: as above

dwell time [1]: 0.2 s
dwell time (small particles of the XCAP1-actin complex preparation) [1]: 0.2 s
dwell time at the filament end [1]: 0.24 s
dwell time at the filament side [1]: 0.2 s
stoichiometry N [2]: 4
Substance: actin-free Xenopus cyclase-associated protein 1 (natural protein)

Source: doi:10.1101/2025.08.14.670363
